# PMC4539566
# Biological target: fibronectin (Fn) isolated from human plasma, as manually pulled single Fn fibres (human) (UniProt P02751)
# Test: fluorescence microscopy of a labelled peptide on single Fn fibres (fibre stretch assay); Fn fibres (10% Fn-Alexa647) held across PDMS trenches in a uniaxial strain device, relaxed or stretched (40%, 140%, 380% absolute strain); blocked with 4% BSA 30 min; incubated with CLP-Alexa488 30 min, rinsed and imaged in PBS; CLP-Alexa488/Fn-Alexa647 intensity ratio normalised to the 140% strain point
# Chain of UniProt P02751 (P02751 32-2477): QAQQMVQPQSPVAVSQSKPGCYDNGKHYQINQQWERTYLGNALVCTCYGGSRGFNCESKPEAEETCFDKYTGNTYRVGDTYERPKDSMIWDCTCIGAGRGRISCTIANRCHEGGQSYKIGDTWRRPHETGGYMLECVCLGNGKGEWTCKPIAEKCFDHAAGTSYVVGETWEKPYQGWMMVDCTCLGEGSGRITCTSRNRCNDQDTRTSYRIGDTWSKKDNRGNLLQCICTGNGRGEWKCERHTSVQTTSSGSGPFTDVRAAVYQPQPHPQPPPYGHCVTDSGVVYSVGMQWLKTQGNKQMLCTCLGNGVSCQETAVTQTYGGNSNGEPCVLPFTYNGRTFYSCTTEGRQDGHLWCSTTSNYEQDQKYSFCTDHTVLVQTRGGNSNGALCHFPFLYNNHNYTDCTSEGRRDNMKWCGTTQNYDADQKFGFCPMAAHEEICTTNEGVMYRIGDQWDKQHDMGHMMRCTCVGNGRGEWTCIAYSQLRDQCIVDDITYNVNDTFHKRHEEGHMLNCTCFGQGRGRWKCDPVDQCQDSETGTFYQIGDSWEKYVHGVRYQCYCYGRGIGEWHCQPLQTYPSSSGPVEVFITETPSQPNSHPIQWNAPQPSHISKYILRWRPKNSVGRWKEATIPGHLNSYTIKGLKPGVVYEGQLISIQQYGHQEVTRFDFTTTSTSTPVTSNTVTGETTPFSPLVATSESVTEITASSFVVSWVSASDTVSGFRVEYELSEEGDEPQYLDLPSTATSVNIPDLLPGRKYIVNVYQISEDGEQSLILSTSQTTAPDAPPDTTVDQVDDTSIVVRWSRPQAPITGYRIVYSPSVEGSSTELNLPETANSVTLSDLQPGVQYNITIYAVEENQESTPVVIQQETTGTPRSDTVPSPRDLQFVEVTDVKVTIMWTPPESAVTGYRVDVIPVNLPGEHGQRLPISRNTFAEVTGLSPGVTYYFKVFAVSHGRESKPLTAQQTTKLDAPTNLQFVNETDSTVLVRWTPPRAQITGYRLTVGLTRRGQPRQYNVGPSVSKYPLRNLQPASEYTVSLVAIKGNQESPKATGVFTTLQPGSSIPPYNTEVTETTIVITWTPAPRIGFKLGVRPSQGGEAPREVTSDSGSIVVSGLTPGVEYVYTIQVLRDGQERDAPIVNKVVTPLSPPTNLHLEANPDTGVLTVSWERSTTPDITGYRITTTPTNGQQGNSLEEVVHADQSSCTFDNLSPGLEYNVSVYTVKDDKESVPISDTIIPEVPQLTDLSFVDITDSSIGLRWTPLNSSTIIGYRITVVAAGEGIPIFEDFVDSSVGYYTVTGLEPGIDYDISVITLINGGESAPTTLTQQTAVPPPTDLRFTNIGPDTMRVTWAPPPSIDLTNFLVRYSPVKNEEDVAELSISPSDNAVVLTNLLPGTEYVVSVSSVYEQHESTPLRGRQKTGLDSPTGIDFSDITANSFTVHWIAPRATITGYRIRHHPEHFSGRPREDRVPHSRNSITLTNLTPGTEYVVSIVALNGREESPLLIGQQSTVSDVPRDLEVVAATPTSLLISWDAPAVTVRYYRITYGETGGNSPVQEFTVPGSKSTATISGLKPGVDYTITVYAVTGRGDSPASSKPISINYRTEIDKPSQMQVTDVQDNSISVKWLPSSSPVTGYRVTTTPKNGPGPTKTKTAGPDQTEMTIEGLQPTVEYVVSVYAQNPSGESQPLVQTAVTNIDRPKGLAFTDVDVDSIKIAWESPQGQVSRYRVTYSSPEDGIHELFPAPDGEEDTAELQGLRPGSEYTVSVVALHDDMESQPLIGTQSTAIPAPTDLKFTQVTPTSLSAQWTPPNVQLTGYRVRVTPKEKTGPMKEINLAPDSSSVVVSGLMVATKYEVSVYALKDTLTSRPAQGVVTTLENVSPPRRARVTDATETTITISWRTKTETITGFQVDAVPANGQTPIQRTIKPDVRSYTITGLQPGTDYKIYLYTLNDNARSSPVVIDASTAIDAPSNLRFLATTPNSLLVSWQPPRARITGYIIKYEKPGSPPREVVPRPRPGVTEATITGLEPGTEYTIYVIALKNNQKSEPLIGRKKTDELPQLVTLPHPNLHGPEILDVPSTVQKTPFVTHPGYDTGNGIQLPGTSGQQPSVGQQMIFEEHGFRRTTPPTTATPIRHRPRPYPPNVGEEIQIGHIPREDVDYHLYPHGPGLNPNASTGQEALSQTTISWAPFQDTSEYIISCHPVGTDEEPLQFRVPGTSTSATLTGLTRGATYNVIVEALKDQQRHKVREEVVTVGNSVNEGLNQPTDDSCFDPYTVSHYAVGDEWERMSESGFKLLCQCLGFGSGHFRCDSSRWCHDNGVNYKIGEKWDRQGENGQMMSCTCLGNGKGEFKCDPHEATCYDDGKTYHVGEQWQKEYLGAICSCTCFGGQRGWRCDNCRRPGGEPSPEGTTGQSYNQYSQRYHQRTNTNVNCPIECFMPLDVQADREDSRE
substance,measurement,value
"synthetic collagen peptide (CLP) derived from the Fn-binding region of the α1 chain of type I collagen (residues Q778-G799), with a terminal cysteine",drop of the CLP/Fn intensity ratio from low to high Fn fibre strain,52%
